Experiment: yeast display, Sf9 membrane polyspecificity reagent, FACS + sequencing; frameworks hold sequencing errors
Procedure, shortened: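 Nanobodies from a synthetic yeast display library (Saccharomyces cerevisiae BJ5465), induced 36–48 hours with galactose, were stained 1 hour at 4 °C with 10% biotinylated, detergent-solubilized Sf9 membrane reagent, enriched on streptavidin microbeads, then FACS-sorted. Anti-HA (expression) and streptavidin (reagent binding) fluorescence set low and high (top ~1%) gates. Polyreactivity labels come from the gate of origin. Genes were colony-PCR amplified, MiSeq 2 × 250 sequenced and filtered by CDR length.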

Sequence	polyreactivity (PSR sort gate)
QVQLVESAGGLVKAGGSLRLSCAAYGSTFSYYTMGWYRQAPGKERELVAAITRRGDSTYADSVKGRFTISRDNAKNTVYLQMNSLKPEDTAVYYCAADASVGVSGMDYWGQGTQVTVSS	low polyreactivity
QVQLVESGGGLVQAGGSLRLSCAASGSIFGPNAMGWYRQSPGKERELVAAISWGGGSTYYADSVKARITISRDNAINTVYLQMNILKPEDTGVYYCNASGYHDTAVRYDYWGQGTQVTVSS	low polyreactivity
QVQLVESGGGLVQAGGSLRLSCAASGGIFIFYAMGWYRQAPGKERELVAAISNVSSTNYADSVKGRFTISRDNAKNTVYLQMNSLKPEDTAVYYCNAVGVPSEYYSWGQGTQVTVSS	low polyreactivity
QVQLVESGGGLVQAGGSLRLSCAASGRTFSVYSMGWYRQAPGKERDLVAGITGNGGSTYYADSVKGSFTISRDNAKNTVYLQMNSLKPEDTAVYYCATAYWVIITRGEYGYCGQGTQVTVSS	low polyreactivity
QVQLEESGGGFVQAAGTLRLSCAPSGRIFLPYAMGWYRQAPGKEREFVAAITWGAGTTYYADSVKGRFTISRDNAKNTVYLQMNSLKPDDTAVYYCNARRRRAFSLYYYWGQGTQVTVSS	high polyreactivity
QVQLVESGGGLVQAGGSLRLSCAASGSIFTPNAMGGYRQAPGKERELVAAISSSSDRTYYADSVKGRFTISRDNAKNTVYLQMNSLKPEDTAVYYCAAYAQQRYYWGQGTQVTVSS	high polyreactivity
QVQLVESGGGLVQAGGSLRLSCAASGCTFSIYAMGWYRQAPGKERELVAAFTGTVGSTYYADSVKVRFTISRDNAKNTVYLQMKSLKPEDTAVYYCNVDWFWNWRGYYWGQGTQVTVSS	low polyreactivity
QVQLVESGGGLVQAGGSLRLSCAASGSTFRTNAMGWYRQAPGKERELVARIRYSVGSTYYADSVKGRFTISRDNAKNTVYLQMNSLKPEDTAVYYCAAENQRVGTFREHDSWGQGTQVTVSS	low polyreactivity
QVQLVESGGGLVQAGGSLRLTCAASGGIFGINAMRWYRQAPGKERELVAAITSGDSTNYADSVKGRFTISRDNAKNTVYLQMNSLKPEDTAVYYCNADPDTYVSTITHDSWGQGTQVTVSS	low polyreactivity
QVQLVESGGGLVQAGGSLRLSCAASGFTFIRNAMGWYRQAPGKERELVAAISWRGVRTYADSVKGRFTISRDNAKNTVYLQMHSQKPEDTAVYYCAARDAHYYPTMGYWGQGTQVTVSS	high polyreactivity
QVQLVESGGGLVQAGASLRLSCAASGRTFRYYAMGWYRQEPGKERELVAAITSGGSTYYADSVKGRFTISRDNAKKTVYLQMNSLKPEVTAVYYCAAVPAGLWGTYPQFRYGYWGQGTQVTVSS	high polyreactivity
QVQLVESGGGLVQAGGSLRLSCAASGSTFRYYAMGWYRQAPGKEREFVAAINWSGTSTYYADSVKGRFTISRDNAKNTVYLQMNRLKPEDTAVYYCNARYGLRYVRYGEMDYWGQGTQVTVSA	high polyreactivity
QVQLVESGGGLVQAGGSLRLSCAASGFTYRYYTMGLYRQAPGKERELVAAINTSGAGTYYADSVKGRFTISRDNAKNTVYLQMNSLKPEDTAVYYCAATWYGLDYNYWGQGTQVTVSS	high polyreactivity
QVQLVESGGGLVQAGGRLRISCAASGFTFEYNDMGWYRQAPGKERELVASISYDSDSTYYADSVKGRFTISRDNAKNTVYLQMNSLKPEDTAVYYCNAGSSYHEYGYWGQGTQVTVSS	high polyreactivity
QVQLVESGGGLVQAGGSLRLSCAASGSTFYSYAMGWSRQAPGKERELVARISGSGGSTYYADSVKGRFTISRDTAKNTVYLQMNSLKPEDPAVYYCAADDIYKYYQYYAFPYYRYDYWGQGTQVTVSS	low polyreactivity
QVQLVESGGGLVQAGGSLRLSCAASGRIVEVYAMGWYRQARGKERELVAAISSGGGSTYYADSVKGRFTISRDNAKNTVYLQMNSQKPEDTAVYYCAARKPSVRGAPYYYWGQGTQVTVSS	high polyreactivity
QVQLVESGGGLVQAGGSLRLSCAASGNTFWGNAMGWYRQAPGKERELVATISASAGSTYYADSVKGRFTISRDNAKNTVYLQMNSLKPDDTAVYYCAKTALRYLKHGRTKGDYWGQGTQVTLSS	low polyreactivity
QVQLVESGGGLVQAGGSLRLSCAASGFTFQLYAMGWYRQAPGKERELVAAISSSGTSTYYADSVKGRFTISRDNAKNTVFLQMNSLKPEDTAVYYCAARGPYTYRRYGYWGQGTQVTVSS	high polyreactivity
QVQLVESGGGLVQAGGSLRLSCAASGSTFDGYAMGWYRQAPGKERELVAAITSSDGSTYYADSVKGRFTISRDNAKNTVYLQMNSLKPEDTAVSDCNAEGYDWEFGYWGQGTQVTVSS	low polyreactivity
QVQLVESRGGLVQAGGSLRLSCAASGRIFRYNAMGWDRQAPGKERELVAAITRSGGRTYYADSVKGRFTISRDNAKNTVYLQMNSLKPEDTAVYYCAADKYPSSPYVGDVDYWGQGTQVTVSS	high polyreactivity
QVQLVESGGGLVQAGGSLRLSCAASGGIFYNYAMGWYIQAPGKERELVAAITYSGVRTNYADSVKGRFTISRDNAKNTVYLQMNSLKPEDTAVYYCNAAVVYVKMDYWGQGTQVTVSS	low polyreactivity
QVHLVESGGGLVQAGGSLRLSCAASGFTFYYYAMGWYRQAPGKERELVATISRSVGSTYYADSVKGRFTISRDNAKNTVYLQMNSLKPEDTAVYYCAVGGYLRSVSYIRLGNYYWGQGTQVSVSS	high polyreactivity

Sequence	polyreactivity (PSR sort gate)
QVQLVESGGGLVQAGGSLRLSCAASGRIFRYNAMGWYRQAPGKERELVAAITNGGSTNYADSVKGRFTISRDNAKNTVYLQMNSLKPEDTAVYYCAAEGNGYLVSTWWVRYEYWGQGTQVTVSS	low polyreactivity
QVQLVESGGGLVQAGGSLRLSCAASGRIFVPYVMGWYRQAPGKERELVASISDSDTSTYYADSVKGRFTISRDNAKNTVYVQMNSLKPEDTAVYYCNVDYWGQGTQVTVSS	low polyreactivity
QVQLVESGGALVQAGCSLSLSCAASGRIFSHNAMGWYRQAPGKERELVAGISSGGGTTYADSVKGRFTISRDNAKNNVYLQMNSLKPEDTAVYYCNKQDQPVGRSGYPYGYDYWGQGTQVTVSS	low polyreactivity
QVQLVESGGGLVQAGGSLRLSCAASGRIFSRYAMGWYRQAPGKERELVAAITYSGGSTYYADSVKGRFTISRDNAKNTVYLQMNSLKPEDTAVYYCNAATYGGRYYYWGQGTQVTVSS	high polyreactivity
QVQLVESGGGLVHAGGSHRLSCAASGFSFKSYAMGWYRQAPGKERELVAAISRRCGSTNYADSVKGRFTISRDNAKNTVYLQMNSLKPEDTAVYYCNADPYNSPYQVSGPYKEDYDYWGQGTQVTVSS	high polyreactivity
QVQLVESGGGLVQAGGSLRLSCAASGRIFTHNVMGWYRQAPGTERELVAAISGGGGSTYYADSVKGRFTLSRDNAKNNVYKQMNSLKPEDTAVYYCAKDNHYEADRYDYWGQGTQVTVSS	low polyreactivity
QVQLVESGGGLVQAGGSLRLICAASGSIFFYYAMGWYRQAPGKERELVAAITKIGVGTFYADSVKGRFTISRDNAKNTVYLQMNSLKPEDTAVYYCNARTAWEGYDYWGQGTQVTVSS	low polyreactivity
QVQLVESGGGLVQAGGSLRLSCAASGGIFFSNVMGWYRQAPGKERELVAAITSGDNTNYADSVKGRFTISRDNAKNTVYLQMNSLKPEDTAVYYCNADVASEYSDKYDYWGQGTQVTVSS	low polyreactivity
QVQLVESGGGLVQAGGSLRLSCAASGSTFQINAMGWYRQAPGKEREFVAAITVSSGSTYYADSVKGRFTISRDNAKNTVYLQMNSLKPEDTAVYYCAADYWGQGTQVTVSS	low polyreactivity
QVQLVESGGGLVQAGGSLRLSCAASGFIFYRNAMGWYRPAPGKERELVAAINRGGSTYYADSVKGRFTISRDNAKNTVYLQMNSLKPEDTAVYYCAAYHLRPSRYDYWGQGTQVTVSS	high polyreactivity
QVQLVESGGGLVQAGGSLRLSCAASGITFSNYSMGWYRQAPGKERELVAAISKRGGSTYYADSVKGRFTISRDNAKNTVYLQMNSLKPEDTAVYNCAAAGVRVYVRSGLDYWGQGTQVTVSS	high polyreactivity
QVQLVESGGGLVQAGGSLRLSSAASGRIFGRYAMGWYRQAPGKERELVDAITCTGGTTYYADSVKGRFTISRDNAKNTVYLQMNSLKPEDTAVYYCAARQGYGIYGDYYYWGQGTHVTVSS	high polyreactivity
QVQLVESGGGLVQAGGSLRLSCAASGSTSNTMTWDGIDRRLGKKGSWLPPITVSGGGTYYADSVKGRFTISRDNANNTVYLQMNSLKPEDTAVYYCATEYELAIYGDDYWGQGTQVTVSS	low polyreactivity
QVQLVESGGGLVQAGGSLRLSFAASGFTFKYYAMGWYRPAPGKERELVAAIRSGGSTYYADSVKGRFTISRDNAKNTVYLQMNSLKPEDTAVYYCNAPAFYRYGLNYWGQGTQVTVSS	high polyreactivity
QVQLVESGGGLVQAGGSLRLSCAASGSIFITNAMGWYRQAPGKERELVATITDSGGSTYYADSVKGRFTISRDNAKNTVYLQMNSLKPEDTAVYYGAKDRVYLTRVYHYDYWGQGTQVTVSS	low polyreactivity
QDQLVESGGGLVQAGGSLRLSCAASRNIFYINTMGWYIQAPGKERALVAAIDASDGTTYYADSVKGRFTISRDNAKNTVYLQMNSVKPEDTAVYYCATRRGYDSVYYFYTLWYYYWGQGTQVTVSS	low polyreactivity
QVQLVESGGGLVQAGGSLRLSCAASGSIFGTYAMGWYRQAPGKERELVAAITSSGGSTYYADSVKGRFTISRDNAKNTVYLQMNSLKPEDTAVYYCAAYRRIRVGVPVRTYYYWGQGTQVTVSS	high polyreactivity
QVQLVESGGGLVQAGGSLRLSCAASGFIFRTYAMGWYRQAPGKEREFVAAISSGSSTYYADSEKGRFTISRDNANNSVYLQMISLKPEDTAVYYCAARVPQQSRTWRGSTRSYRYGYWGQGTQVTVSS	high polyreactivity
QVQLVESGGGLVQAGGSLRLSCAASGYTIESYTMGWYREAPGKEREFVAVISSSDTSTSYADSVKGRFTISRDNAKNTVYLQMNSLKPEDTAFYYCAAYSSPYYITYYWYNYDYWGQGTQVTVSS	low polyreactivity
QVQLVESGGGLVQAGGSLRLSCAASGFTLDPYALGWYRQAPGKERELVAAIRLSGCSTYYADSVKGRFTISRDNAKNTVYLQMNSLKPEDTAVYYCAADGISHWLYRYDYWGQGTQVTVSS	low polyreactivity
QVQLVESGGGLVQAGGSLRLSCAASGGIFIRNAMGWYRQAPGKERELVATISNAGSTYADSVKGRFTISRDNAKNTVYLQMNSLKPEDTAVYYCNRDDWTYPVSQGLQEYDYWGQGTQVTVSS	low polyreactivity

Source: the nanobody polyreactivity screen of Harvey et al. (2022)
